The values that follow are results of earlier work, collected in PMC7134607.

For orientation: Kd means a measure of binding affinity in units of concentration.

The target in this data set is SARS main protease (SARS coronavirus) (UniProt P0C6X7).

For “SARS main protease (from UniProt P0C6X7)”, the Kd is 100 µM.
